The results in this text go back to US20210398607A1, “METHODS FOR DESIGNING ANTIBODY SMALL-MOLECULE CONJUGATES” (priority 2020, published 2021).

The target in test [1] is T1, mSA (monomeric streptavidin construct), wild type.
T1 construct: also called mSAWT
T1 chain: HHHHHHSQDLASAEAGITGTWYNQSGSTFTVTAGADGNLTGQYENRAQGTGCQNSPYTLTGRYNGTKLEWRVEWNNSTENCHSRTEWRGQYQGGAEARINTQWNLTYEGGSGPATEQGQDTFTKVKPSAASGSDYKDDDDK
The test is described as follows: SPR, immobilized mSA.

The target in test [2] is T1, mSA (monomeric streptavidin construct), …. The test is described as follows: SPR, 25 °C, immobilized mSA.
Test [3] shares this target. The test can be described thus: SPR, 25 °C; reference mSA on immobilized biotin. Background: Surface plasmon resonance follows binding to a sensor surface in real time, without labels.
In test [4] the target is T2, mSAS27A (mSA with single mutation S27A).
T2 chain: T1 chain with S27A
The test is described as follows: SPR.

Test [5] addresses T1, mSA (monomeric streptavidin construct), …. The test is described as follows: SPR, conjugate injected at 1, 2.5, 5, 10, 20 nM over immobilized mSAWT; fit curve; one of three replicates.
Test [6] shares this target. The test is described as follows: SPR, conjugate injected at 1, 2.5, 5, 10, 20 nM over immobilized mSAWT; fit curve; replicate 3.
Test [7] deals with T2, mSAS27A (mSA with single mutation S27A). The test can be described thus: SPR, conjugate injected at 62.5, 125, 250, 500 nM and 1 uM over immobilized mSAS27A; biological replicate 3; fit curve.
For test [8] the target is unchanged. The test can be described thus: SPR; reference mSAS27A/biotin.
Test [9] addresses T1, mSA (monomeric streptavidin construct), …. The test is described as follows: SPR, conjugate injected at 1, 2.5, 5, 10, 20 nM over immobilized mSAWT; fit curve; replicate 2.
The target of test [10] is T2, mSAS27A (mSA with single mutation S27A). The test can be described thus: SPR, conjugate injected at 62.5, 125, 250, 500 nM and 1 µM over immobilized mSAS27A; fit curve; one of three replicates.
For test [11] the target is unchanged. The test can be described thus: SPR, conjugate injected at 62.5, 125, 250, 500 nM and 1 uM over immobilized mSAS27A; biological replicate 2; fit curve.
Test [12] has as its target T1, mSA (monomeric streptavidin construct), …. The test can be described thus: SPR, conjugate injected at 0.5, 1, 2.5, 5, 10 nM over immobilized mSAWT; fit curve; one of three replicates.
For test [13] the target is unchanged. The test is described as follows: SPR, conjugate injected at 0.5, 1, 2.5, 5, 10 nM over immobilized mSAWT; fit curve; replicate 3.
Test [14] has the same target. The test is described as follows: SPR; variant v119.
The target is the same in test [15]. The test is described as follows: SPR.
Test [16] has the same target. The test is described as follows: SPR, conjugate injected at 0.5, 1, 2.5, 5, 10 nM over immobilized mSAWT; fit curve; replicate 2.
Test [17] shares this target. The test can be described thus: SPR; variant v149.
For test [18] the target is unchanged. The test is described as follows: SPR, conjugate injected at 0.5, 1, 2.5, 5, 10 nM over immobilized mSAWT; fit curve; replicate 2.
For test [19] the target is unchanged. The test is described as follows: SPR, conjugate injected at 0.5, 1, 2.5, 5, 10 nM over immobilized mSAWT; fit curve; one of three replicates.
For test [20] the target is unchanged. The test is described as follows: SPR, conjugate injected at 0.5, 1, 2.5, 5, 10 nM over immobilized mSAWT; fit curve; replicate 3.

Changes are numbered by the printed parent chain.

B1: 4NBX.B nanobody, wild type (unconjugated) (VHH)
VHH: QVQLQESGGGLAQAGGSLRLSCAASGRTFSMDPMAWFRQPPGKEREFVAAGSSTGRTTYYADSVKGRFTISRDNAKNTVYLQMNSLKPEDTAVYYCAAAPYGANWYRDEYAYWGQGTQVTVSS
notes: also called Wildtype 4NBX.B; 4NBX.B WT
Consider B1, for which the binding result in [1] is recorded as “no binding (tested: 100 nM)”.

B2: 4NBX.B-biotin103 (VHH)
VHH: B1 VHH with A103C
notes: also called 4NBX.B-biotin103 WT
For B2, the dissociation constant (Kd) (as a rule, the free concentration of one partner at which half of the binding sites on the other are occupied at equilibrium, for simple one-to-one binding) in test [2] was 1.8 nM; in test [4] it was 245 nM; in test [5], 1.86 nM; in [6], 1.92 nM; in [7], 188 nM; in test [9], 1.59 nM. The Kd in [10] was 279 nM; in test [11] it was 269 nM. In addition, the “fold affinity improvement over biotin/mSA” value in test [3] turned out to be 4 fold. Further, the off-rate (koff) – broadly, the first-order rate constant of dissociation – in test [5] is 0.00221 s⁻¹; in test [6], 0.00225 s⁻¹; in [7] it was 0.149 s⁻¹; in test [9], 0.00197 s⁻¹; in test [10], 0.12 s⁻¹; in test [11], 0.296 s⁻¹. The kon (commonly the second-order rate constant of association) came out at 1.19e+06 M⁻¹ s⁻¹ in [5]; 1.17e+06 M⁻¹ s⁻¹ in test [6]; 790000 M⁻¹ s⁻¹ in test [7]; 1.24e+06 M⁻¹ s⁻¹ in test [9]; 430000 M⁻¹ s⁻¹ in [10]; 1.1e+06 M⁻¹ s⁻¹ in [11]. Further, the “fold affinity improvement over biotin/mSAS27A” value in test [8] was determined as 5 fold.

B3: 4NBX.B-biotin103 v119 (VHH)
VHH: B1 VHH with M31H, D32A, A103C, N104S, W105H
Take B3: the Kd was determined as 0.78 nM in test [12], 1.11 nM in test [13], 0.9 nM in test [14] and 0.76 nM in test [16]. Moreover, the koff in [12] came out at 0.00177 s⁻¹; in test [13], 0.00213 s⁻¹; in test [16] it was 0.00186 s⁻¹. Also, the kon in test [12] worked out at 2.3e+06 M⁻¹ s⁻¹; in test [13] it was 1.93e+06 M⁻¹ s⁻¹; in test [16], 2.45e+06 M⁻¹ s⁻¹. Also, in [15], the “fold KD improvement over 4NBX.B-biotin103 WT” value is around 2 fold.

B4: 4NBX.B-biotin103 v149 (VHH)
VHH: B1 VHH with M31R, D32S, A103C, N104A, W105R
The molecule B4 gave a dissociation constant Kd in test [17] of 0.12 nM. For the same molecule, in test [18], the equilibrium dissociation constant (Kd) was determined as 0.11 nM, the koff came out at 0.00106 s⁻¹ and the kon was 9.78e+06 M⁻¹ s⁻¹. In addition, in test [19], the dissociation constant Kd is 0.11 nM, the dissociation rate constant (koff) stood at 0.000923 s⁻¹ and the on-rate (kon) came to 8.7e+06 M⁻¹ s⁻¹. In test [15], the “fold KD improvement over biotin/mSAWT” value is above 20 fold, the “fold faster kon compared to v119” value was around 4 fold and the “koff ratio relative to v119” value is around 0.2 fold. In test [20], the Kd amounted to 0.14 nM, the koff is 0.00081 s⁻¹ and the kon is 5.84e+06 M⁻¹ s⁻¹.
